In series [1] the target is Active Akt2 (with N terminal His6 tag) (human) (UniProt P31751). In words: single-component ELISA (bi-L as detection agent, FIG. 23A). For orientation: In an ELISA, binding on a coated surface is turned into a signal by an enzyme label.
The target is the same in series [2]. As to the kind of experiment: single-component immunoassay (ELISA, mono-L as detection agent, FIG. 23A).
Series [3] has the same target. As to the kind of experiment: not stated there (summary of the ELISA and SPR results).
The target is the same in series [4]. In words: SPR, Biacore T100, N-tL immobilised on SA chip, Akt2 protein as analyte, 1:1 model, 10° C.
Series [5] shares this target. As to the kind of experiment: single component ELISA, N-tL as surface-localized capture agent (FIG. 23A).
A further series addresses T1, N-tL (not fully specified).
T1 chain 1: WKVKL
T1 chain 2: HNGYF
T1 chain 3: XYYRFG

In series [6] the target is Active Akt2 (with N terminal His6 tag) (human) (UniProt P31751). As to the kind of experiment: single component ELISA, C-tL as surface-localized capture agent (FIG. 23A).
For series [7], the target named is Active Akt3 (with N terminal His6 tag) (human) (UniProt Q9Y243). As to the kind of experiment: ELISA, C-tL immobilised on streptavidin plate, 25 nM His6 tagged full protein, anti His6 detection, triplicate.
In series [8] the target is Active Akt1 (with N terminal His6 tag) (human) (UniProt P31749). Described as above.
Series [9] has as its target Inactive Akt2 (with N terminal His6 tag) (human) (UniProt P31751). In words: ELISA, immobilised C-tL, active against inactive Akt2 (FIG. 23E).
For series [10], the target named is Active Akt2 (with N terminal His6 tag) (human) (UniProt P31751). As to the kind of experiment: cell-based or functional assay.

Square brackets hold non-standard residues; d marks the D form. Primed or numbered codes have the meaning given here. Ends that are not written are not given here. * marks the point of attachment. D‑Lys(pentyne) = D-Lys(pentyne) amide, alkyne-bearing D-lysine, C#CCCC(=O)NCCCC[C@@H](N*)C(N)=O; S3(3) = biotin-PEG2-acylated azidolysine clicked to D-Pra carrying 5-azido-pentanoic acid; Lys(N3) = [N-]=[N+]=NCCCC[C@H](N)C(=O)O; S3″ = biotin-PEG2 linker with azide; dPra = C#CC[C@@H](N)C(=O)O

Chain of Active Akt3 (with N terminal His6 tag) (human) (Q9Y243 other isoform, or with tags, fused parts or gaps): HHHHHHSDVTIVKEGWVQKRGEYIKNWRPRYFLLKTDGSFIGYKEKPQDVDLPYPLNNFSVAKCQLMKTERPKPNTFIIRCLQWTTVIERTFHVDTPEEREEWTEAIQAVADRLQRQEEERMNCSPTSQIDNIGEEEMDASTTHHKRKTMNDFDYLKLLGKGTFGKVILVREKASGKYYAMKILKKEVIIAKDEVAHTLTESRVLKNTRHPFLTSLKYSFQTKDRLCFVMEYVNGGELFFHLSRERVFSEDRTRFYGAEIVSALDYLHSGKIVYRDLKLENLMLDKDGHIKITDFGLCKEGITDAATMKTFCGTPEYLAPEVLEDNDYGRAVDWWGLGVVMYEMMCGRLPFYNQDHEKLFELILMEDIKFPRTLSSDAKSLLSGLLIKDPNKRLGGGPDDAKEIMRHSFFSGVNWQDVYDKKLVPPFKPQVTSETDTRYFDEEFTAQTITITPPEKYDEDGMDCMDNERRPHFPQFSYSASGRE
Chain of Active Akt1 (with N terminal His6 tag) (human) (P31749 other isoform, or with tags, fused parts or gaps): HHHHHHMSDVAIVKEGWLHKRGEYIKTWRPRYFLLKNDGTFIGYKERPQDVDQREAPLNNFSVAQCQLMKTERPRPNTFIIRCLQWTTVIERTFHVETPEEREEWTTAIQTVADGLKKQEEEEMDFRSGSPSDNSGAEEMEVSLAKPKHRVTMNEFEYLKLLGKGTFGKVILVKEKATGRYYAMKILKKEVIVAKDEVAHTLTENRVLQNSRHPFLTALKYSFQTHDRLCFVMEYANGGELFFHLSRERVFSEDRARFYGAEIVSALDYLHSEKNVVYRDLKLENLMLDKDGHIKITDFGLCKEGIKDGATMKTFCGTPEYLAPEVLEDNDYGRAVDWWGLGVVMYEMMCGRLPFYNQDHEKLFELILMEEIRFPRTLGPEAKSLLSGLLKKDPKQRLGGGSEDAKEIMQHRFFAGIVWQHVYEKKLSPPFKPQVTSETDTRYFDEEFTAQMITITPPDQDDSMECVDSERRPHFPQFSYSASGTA

B1: bi-L (peptide)
peptide 1: {S3(3)}-[dW][dK][dV][dK][dL]-NH2
peptide 2: [dH][dN]G[dY][dF][dPra]
modifications: triazole (positions not given here); also: branched two-arm conjugate, triazole to a chain's N/C-terminus via S3
As to B1, the affinity in series [1] was 1 µM.

B2: mono-L (peptide)
peptide: [dPra][dW][dK][dV][dK][dL]-NH2
modifications: not fully specified (residue 1, N-terminus); printed as (D-Pra)-wkvkl; also: D-Pra side chain clicked (triazole) to azide of S1 (azidolysine-PEG2-biotin), biotin label
In the case of B2, in [2], the affinity came out at 3 µM.

B3: N-tL (peptide)
peptide 1: [dW][dK][dV][dK][dL]
peptide 2: [dH][dN]G[dY][dF]
peptide 3: Ac-[dPra][dY][dY][dR][dF]G-NH2
modifications: not fully specified (bridges)
The molecule B3 had an affinity in series [3] of 20 nM. The Kd (commonly the constant that tells how readily two partners part at equilibrium) in series [4] is 25 nM. Also, the EC50 (usually the concentration that produces a half-maximal response) in [5] turned out to be 19 nM.

B4: Active Akt2 (with N terminal His6 tag) (protein)
chain: HHHHHHMNEVSVIKEGWLHKRGEYIKTWRPRYFLLKSDGSFIGYKERPEAPDQTLPPLNNFSVAECQLMKTERPRPNTFVIRCLQWTTVIERTFHVDSPDEREEWMRAIQMVANSLKQRAPGEDPMDYKCGSPSDSSTTEEMEVAVSKARAKVTMNDFDYLKLLGKGTFGKVILVREKATGRYYAMKILRKEVIIAKDEVAHTVTESRVLQNTRHPFLTALKYAFQTHDRLCFVMEYANGGELFFHLSRERVFTEERARFYGAEIVSALEYLHSRDVVYRDIKLENLMLDKDGHIKITDFGLCKEGISDGATMKTFCGTPEYLAPEVLEDNDYGRAVDWWGLGVVMYEMMCGRLPFYNQDHERLFELILMEEIRFPRTLSPEAKSLLAGLLKKDPKQRLGGGPSDAKEVMEHRFFLSINWQDVVQKKLLPPFKPQVTSEVDTRYFDDEFTAQSITITPPDRYDSLGLLELDQRTHFPQFSYSASIRE
Consider B4, for which the “Akt2 kinase activity: phosphorylation of the GSK-3α/β substrate, Western blot” value with N-tL is recorded as “The N-tL was found to activate Akt2”.

B5: C-tL (peptide)
peptide 1: Ac-[Lys(N3)][dH][dD]GG[dF]-NH2
peptide 2: {S3″}-[dW][dK][dV][dK]-{D‑Lys(pentyne)-NH2}
peptide 3: [dH][dN]G[dY][dF][dPra]
modifications: not fully specified (bridges); also: branched three-arm conjugate, triazole at chain A 1 to a chain's C-terminus, triazole to a chain's N/C-terminus via S3
For B5, the EC50 in series [6] worked out at 125 nM. In addition, in [7], the selectivity ratio (Akt2 over Akt3) (fold (ratio, reference full-length Akt2)) is 10. The selectivity ratio (Akt2 over Akt1) (fold (ratio, reference full-length Akt2)) in series [8] came out at 5. For the same molecule, the selectivity ratio (p-Akt2 over Akt2) (fold (ratio, reference p-Akt2)) in series [9] is 5. The molecule also yielded an Akt2 kinase activity: phosphorylation of the GSK-3α/β substrate, Western blot, EC50 in series [10] of 4000 nM.
